Data reported in patent US20090217392A1.

Key:
[1] = molecular target: human αvβ3 integrin on cells (human) (UniProt P06756); assay: 125-I antibody saturation binding on M21 cells
[2] = molecular target: human αVβ3 integrin, purified (human) (UniProt P06756); assay: saturation ELISA on αvβ3-coated plate, n = 6
[3] = molecular target: human αvβ3 integrin on cells (human) (UniProt P06756); assay: 125-I antibody saturation binding on A375S2 cells

human αvβ3 integrin on cells (human), sequence (P06756 31-1048, chain 1 of 2): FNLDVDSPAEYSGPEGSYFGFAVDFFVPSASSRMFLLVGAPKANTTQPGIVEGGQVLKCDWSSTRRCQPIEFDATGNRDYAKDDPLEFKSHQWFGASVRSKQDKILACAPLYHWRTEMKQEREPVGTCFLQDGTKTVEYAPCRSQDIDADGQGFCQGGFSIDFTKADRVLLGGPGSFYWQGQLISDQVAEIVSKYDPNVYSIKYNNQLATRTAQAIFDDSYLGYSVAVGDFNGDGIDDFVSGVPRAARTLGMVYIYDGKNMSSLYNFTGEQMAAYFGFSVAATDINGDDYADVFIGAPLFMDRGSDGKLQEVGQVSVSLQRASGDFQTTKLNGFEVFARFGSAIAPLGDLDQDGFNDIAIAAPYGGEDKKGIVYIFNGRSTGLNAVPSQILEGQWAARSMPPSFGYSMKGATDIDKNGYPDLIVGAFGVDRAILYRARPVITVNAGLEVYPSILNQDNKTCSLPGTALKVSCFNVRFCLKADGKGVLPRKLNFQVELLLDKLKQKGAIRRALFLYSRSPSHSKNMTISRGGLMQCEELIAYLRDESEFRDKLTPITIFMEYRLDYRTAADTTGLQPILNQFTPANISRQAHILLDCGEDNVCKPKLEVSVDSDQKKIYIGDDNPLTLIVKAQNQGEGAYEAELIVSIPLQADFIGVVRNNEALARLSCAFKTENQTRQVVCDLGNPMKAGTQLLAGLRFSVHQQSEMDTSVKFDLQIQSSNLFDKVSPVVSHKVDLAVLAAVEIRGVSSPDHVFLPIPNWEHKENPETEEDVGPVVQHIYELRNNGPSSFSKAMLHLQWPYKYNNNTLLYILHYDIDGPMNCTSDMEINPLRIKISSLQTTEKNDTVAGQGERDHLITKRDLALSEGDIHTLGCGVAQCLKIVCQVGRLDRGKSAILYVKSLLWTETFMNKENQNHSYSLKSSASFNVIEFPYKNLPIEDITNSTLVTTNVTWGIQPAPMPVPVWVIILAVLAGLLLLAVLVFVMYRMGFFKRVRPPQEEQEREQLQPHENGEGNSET
human αvβ3 integrin on cells (human), sequence (P05106 27-788, chain 2 of 2, further chain): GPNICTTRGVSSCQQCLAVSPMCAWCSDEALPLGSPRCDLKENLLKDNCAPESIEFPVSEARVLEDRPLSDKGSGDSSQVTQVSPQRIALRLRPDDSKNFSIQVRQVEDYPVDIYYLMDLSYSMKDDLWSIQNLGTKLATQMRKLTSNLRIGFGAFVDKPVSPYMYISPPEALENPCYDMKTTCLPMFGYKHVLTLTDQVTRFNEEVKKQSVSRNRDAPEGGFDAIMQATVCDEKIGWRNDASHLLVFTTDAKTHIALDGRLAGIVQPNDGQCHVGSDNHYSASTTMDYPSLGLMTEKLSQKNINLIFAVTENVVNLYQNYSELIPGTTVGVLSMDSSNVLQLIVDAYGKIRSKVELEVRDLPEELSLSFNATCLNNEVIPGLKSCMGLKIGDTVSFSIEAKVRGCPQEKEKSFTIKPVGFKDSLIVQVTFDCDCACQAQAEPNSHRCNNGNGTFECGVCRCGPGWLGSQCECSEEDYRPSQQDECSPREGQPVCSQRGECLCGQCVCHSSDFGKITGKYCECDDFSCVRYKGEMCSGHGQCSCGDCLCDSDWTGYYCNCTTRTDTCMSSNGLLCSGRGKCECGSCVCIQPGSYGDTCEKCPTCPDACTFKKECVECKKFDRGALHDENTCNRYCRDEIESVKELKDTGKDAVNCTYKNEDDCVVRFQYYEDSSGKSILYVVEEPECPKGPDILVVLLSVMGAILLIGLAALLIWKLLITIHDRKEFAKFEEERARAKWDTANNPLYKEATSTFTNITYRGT
human αVβ3 integrin, purified (human), sequence (P06756 31-1048, form in doubt, chain 1 of 2): as the sequence (P06756 31-1048, chain 1 of 2) above
human αVβ3 integrin, purified (human), sequence (P05106 27-788, form in doubt, chain 2 of 2, further chain): as the sequence (P05106 27-788, chain 2 of 2, further chain) above

B1: abciximab (Fab, INN chains, looked up, V domains shown)
VH: EVQLQQSGTVLARPGASVKMSCEASGYTFTNYWMHWVKQRPGQGLEWIGAIYPGNSDTSYIQKFKGKAKLTAVTSTTSVYMELSSLTNEDSAVYYCTLYDGYYVFAYWGQGTLVTVSA
VL: EIVLTQSPVTLSVTPGDSVSLSCRASRDISNNLHWFQQTSHESPRLLIKYASQSMSGIPSRFSGSGSGTDFTLSINSVETEDFGMYFCQQTNSWPYTFGGGTKLEIK
modifications: Fab 125I label
Kd [1]: 10 nM | Receptors per cell (receptors per cell) [1]: 660000 | Kd [2]: 0.25 nM | Kd [3]: 22 nM | Receptors per cell (receptors per cell) [3]: 370000
